Measurements published in ChEMBL document CHEMBL4613261, “Metabolic and Pharmaceutical Aspects of Fluorinated Compounds” (J Med Chem, 2020).

How the values were obtained:
[1] = substrate: N[C@@H](CF)C(=O)O; conditions: Escherichia coli B
Description: (§2) Substrate activity at Escherichia coli B alanine racemase assessed as Km

[2] = substrate: C[C@H](N)C(=O)O; conditions: Escherichia coli B
Description: as §2

[3] = substrate: N[C@H](CF)C(=O)O; conditions: Escherichia coli B
Description: as §2

[4] = substrate: OC[C@@H]1CC[C@H](n2cnc3c(Cl)ncnc32)O1; test: (§1) Prodrug conversion in rat blood assessed as Km for adenosine deaminase-mediated didanosine formation by HPLC analysis; assay type: ADME, tissue-based
[5] = substrate: OC[C@@H]1CC[C@H](n2cnc3c(F)ncnc32)O1; test: as §1; assay type: ADME, tissue-based
[6] = substrate: OC[C@@H]1CC[C@H](n2cnc3c(Br)ncnc32)O1; test: as §1; assay type: ADME, tissue-based

| Protein | Km [1] | Km [2] | Km [3] | Km [4] | Km [5] | Km [6] |
| --- | --- | --- | --- | --- | --- | --- |
| Alanine racemase, biosynthetic (Escherichia coli K-12), P0A6B4 (protein) MQAATVVINRRALRHNLQRLRELAPASKMVAVVKANAYGHGLLETARTLPDADAFGVARLEEALRLRAGGITKPVLLLEGFFDARDLPTISAQHFHTAVHNEEQLAALEEASLDEPVTVWMKLDTGMHRLGVRPEQAEAFYHRLTQCKNVRQPVNIVSHFARADEPKCGATEKQLAIFNTFCEGKPGQRSIAASGGILLWPQSHFDWVRPGIILYGVSPLEDRSTGADFGCQPVMSLTSSLIAVREHKAGEPVGYGGTWVSERDTRLGVVAMGYGDGYPRAAPSGTPVLVNGREVPIVGRVAMDMICVDLGPQAQDKAGDPVILWGEGLPVERIAEMTKVSAYELITRLTSRVAMKYVD | 50 µM | 1300 µM | 2400 µM |  |  |  |
| (Rattus norvegicus) (protein) MAQTPAFNKPKVELHVHLDGAIKPETILYYGKKRGIDLPADTVEGLRNIIGMDKPLSLPDFLAKFDYYMPAIAGCREAIKRIAYEFVEMKAKEGVVYVEVRYSPHLLANSKVDPIPWNQAEGDLTPDEVVDLVNQGLQEGEQAFGIKVRSILCCMRHQPSWSPEVLELCKKYHQKTVVAMDLAGDETIEGSSLFPGHVEAYEGAVKDGIHRTVHAGEVGSAEVVREAVDILKTERVGHGYHTIEDEALYNRLLKENMHFEVCPWSSYLTGAWNPKTTHAVVRFKDDQANYSLNSDDPLIFKSTVDTDYQMVKKDMGFTEEEFKRLNINAAKSSFLPEDEKKELLERLYKEYQ |  |  |  | 17000 µM | 720 µM | 16000 µM |
